# From patent publication US7288256B1, “T cell epitopes of the major allergens from dermatophagoides (house dust mite)” (Merck Patent GmbH, priority 1991, dated 2007)
# B1: Der p I: Group I protein allergen of Dermatophagoides pteronyssinus, immunoaffinity purified native form (protein)
# chain: TNACSINGNAPAEIDLRQMRTVTPIRMQGGCGSCWAFSGVAATESAYLAHRNQSLDLAEQELVDCASQHGCHGDTIPRGIEYIQHNGVVQESYYRYVAREQSCRRPNAQRFGISNYCQIYPPNANKIREALAQTHSAIAVIIGIKDLDAFRHYDGRTIIQRDNGYQPNYHAVNIVGYSNAQGVDYWIVRNSWDTNWGDNGYGYFAANIDLMMIEEYPYVVIL
# Experiments:
# [1] = test system: PBMC from mite-allergic patient; assay: Primary PBMC proliferation (3H-thymidine) to Der p I/Der p II proteins and peptides, Example IV; assay type: cell-based, human; conditions: for CPM ± S.D.: 7 days culture; for S.I.: CPM with antigen / CPM medium only
# Method: Peripheral blood mononuclear cells (PBMC) were purified by Ficoll-Hypaque centrifugation of a peripheral blood specimen from mite-allergic patient and were assayed for proliferation in response to various antigens, i.e., affinity-purified Der p I, affinity purified […], various Der p I and Der p II peptides. For assay, 5×10^4 PBMC were cultured in triplicate microwells for 7 days at 37° C. in the presence of various concentrations of antigen in 200 μl RPMI-1640 containing 5% human AB serum. Each well then received 1 μCi tritiated thymidine for 16 hours. The counts incorporated were collected onto glass fiber filters and processed for liquid scintillation counting. […] The CPM+/− standard deviation are shown. The stimulation index of each response (S.I.) is the ratio of the ^3H-thymidine CPM incorporated by the cells in response to antigen divided by the ^3H-thymidine CPM incorporated by cells in medium only. […] Thus, these peptides contain Der p I or Der p II T cell epitopes recognized by T cells from this particular allergic patient.
# [2] = test system: human IgE; assay: Direct binding ELISA of IgE to mite allergen proteins and peptides (Examples XIII, XV); conditions: plasma from 19 mite-allergic patients and a pool of 18 additional patients; Example XV
# Method: Corning assay plates (#25882-96) were coated with 5 μg/ml of each coating antigen listed in FIGS. 19, 20 and 21 at […] and incubated overnight at 4° C. The coating antigens were removed and the wells are blocked with 0.5% gelatin in PBS, 300 μl/well for 2 hours at room temperature. […] Louis, Mo.) and 100 μl/well a\was added and incubated overnight at 4° C. (plasma dilutions were tested in duplicate). The second antibody (biotinylated goat anti-Human IgE, 1:1000, Kirkegaard & Perry Laboratories Inc, Gaithersburg, Md.), was added at 100 μl/well for one hour at room temperature. This solution was removed and streptavidin-HRPO, 1:10000, (Southern Biotechnology Associates, Inc., Birmingham, Ala.) was then added at 100 μl/well for one hour at room temperature (all wells are washed three times with PBS-Tween between each incubation step). TMB Membrane Peroxidase Substrate system (Kirkegaard & Perry Laboratories) was freshly miced, and added at […]. The color was allowed to develop for 2-5 minutes. The reaction was stopped by the addition of […] of 1M phosphoric acid. Plates were read on a Microplate IL310 Autoreader (Biotech Instruments, Winooski, Vt.) with a 450 nm filter. The absorbance levels of duplicate wells were averaged. The order of coating antigens listed vertically in these figure legends corresponds in […] from left to right to the coating antigens listed for each histogram.
molecule,measurement,setting,value
B1,CPM ± S.D.,[1]; antigen 10 μg/ml,920 ± 15 CPM
same,S.I.,[1]; antigen 10 μg/ml,0.9
same,CPM ± S.D.,[1]; antigen 30 μg/ml,2122 ± 93 CPM
same,S.I.,[1]; antigen 30 μg/ml,2.0
same,CPM ± S.D.,[1]; antigen 100 μg/ml,1492 ± 13 CPM
same,S.I.,[1]; antigen 100 μg/ml,1.4
same,IgE binding in direct ELISA,[2],All samples did contain IgE
